Positions of bridges follow the written chain, without caps; N, C: chain ends. Non-standard residues stand in square brackets, D forms with d. Groups on a side chain read outwards from the residue. No end group written: not given here. *: point of attachment. Docosanoyl = CCCCCCCCCCCCCCCCCCCCCC(=O)*; Phe(4-NH2) = Nc1ccc(C[C@H](N)C(=O)O)cc1; PhLac = O=C(O)[C@@H](O)Cc1ccccc1; Aib = CC(C)(N)C(=O)O; C20 = C20 acyl group; Sar = CNCC(=O)O
Assays:
GLP-1 receptor [1] = molecular target: GLP-1 receptor (Homo sapiens, UniProt P43220); test: GLP-receptor luciferase bioassay of samples incubated in 20% human plasma (restored activity); assay type: cell-based; settings: 37° C., 0 to 5 d
Sequence of GLP-1 receptor (Homo sapiens, UniProt P43220) (P43220 24-463): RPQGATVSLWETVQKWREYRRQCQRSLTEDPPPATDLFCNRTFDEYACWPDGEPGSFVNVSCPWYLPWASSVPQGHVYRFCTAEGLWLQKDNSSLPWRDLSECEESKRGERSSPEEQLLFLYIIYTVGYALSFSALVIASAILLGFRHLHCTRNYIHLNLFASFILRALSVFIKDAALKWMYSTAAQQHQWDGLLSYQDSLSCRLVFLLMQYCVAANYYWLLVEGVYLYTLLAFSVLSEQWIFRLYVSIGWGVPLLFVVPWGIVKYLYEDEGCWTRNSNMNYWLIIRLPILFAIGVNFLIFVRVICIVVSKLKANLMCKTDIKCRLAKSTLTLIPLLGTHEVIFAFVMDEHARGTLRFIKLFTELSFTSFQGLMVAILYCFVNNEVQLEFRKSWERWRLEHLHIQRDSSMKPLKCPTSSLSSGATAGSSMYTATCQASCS
Method: To explore the possible formation of DKP and simultaneous regeneration of the parent drug, the above-mentioned peptides were incubated in 20% human plasma at 37° C. for approximately 5 days. Samples were collected at different time points (0, 1, 2, and 5 days).

glucagon receptor [2] = molecular target: glucagon receptor (UniProt P47871); test: cell-based or functional assay
Sequence of glucagon receptor (UniProt P47871) (P47871 26-477 limits assumed): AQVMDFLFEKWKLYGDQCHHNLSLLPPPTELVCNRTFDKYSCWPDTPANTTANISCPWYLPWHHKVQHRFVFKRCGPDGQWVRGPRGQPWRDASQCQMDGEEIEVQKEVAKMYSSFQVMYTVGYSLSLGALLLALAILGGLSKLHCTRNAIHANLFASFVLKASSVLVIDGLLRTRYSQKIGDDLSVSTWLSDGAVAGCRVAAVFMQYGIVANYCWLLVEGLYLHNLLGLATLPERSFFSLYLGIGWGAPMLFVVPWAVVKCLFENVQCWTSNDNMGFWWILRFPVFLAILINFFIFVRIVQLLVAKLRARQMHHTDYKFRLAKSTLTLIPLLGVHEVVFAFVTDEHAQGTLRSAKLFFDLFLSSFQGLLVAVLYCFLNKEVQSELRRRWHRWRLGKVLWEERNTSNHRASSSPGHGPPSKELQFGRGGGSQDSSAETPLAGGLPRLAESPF

glucagon receptor [3] = molecular target: glucagon receptor (UniProt P47871); test: cell-based or functional assay; remark: listed apart in the source
GLP-1 receptor [4] = molecular target: T1, GLP-1 receptor (UniProt P43220 24-463, limits assumed); test: cell-based or functional assay
glucagon receptor [5] = molecular target: glucagon receptor (UniProt P47871 26-477, limits assumed); test: cell-based or functional assay
Sequence of glucagon receptor (UniProt P47871 26-477, limits assumed) (P47871 26-477 limits assumed): as above

GLP-1 receptor [6] = molecular target: T1, GLP-1 receptor; test: cell-based or functional assay; remark: listed apart in the source

C20 attached directly to position 10 (non-prodrug): non-prodrug: C20-acylated lysine attached directly to the 4-amino group of phenylalanine at position 10 of Peptide D (F[Aib]EGTFTSD[Phe(4-NH2)]([Lys-C20])SIYLDKQAA[Aib]EFVNWLLAGGPSSGAPPPS; not fully specified (C-terminus))
Change of activity over the time points in plasma (GLP-1 receptor [1]): No change

C22 attached directly to position 10 (non-prodrug): non-prodrug: C22-acylated lysine attached directly to the 4-amino group of phenylalanine at position 10 of Peptide D (F[Aib]EGTFTSD[Phe(4-NH2)]([Lys-Docosanoyl])SIYLDKQAA[Aib]EFVNWLLAGGPSSGAPPPS; not fully specified (C-terminus))
Change of activity over the time points in plasma (GLP-1 receptor [1]): No change

E9, K12, E16 glucagon(6-39) Cex peptide (Table 1 peptide 1)
Glucagon IC50 (glucagon receptor [2]): 762 nM | Glu IC50 (glucagon receptor [3]): 762 nM

[PhLac]TSDYSKYLDERRAKDFVEWLMDT (lactam 15-19) [[PLA6, D9, E16, K20E24(Lactam), D28]G(6-29) (Table 2 peptide 3)]
GLP-1 EC50 (GLP-1 receptor [4]): 239 nM | Glucagon IC50 (glucagon receptor [5]): 74 nM

[PhLac]TSDYSKYLDERRAQDFVEWLMKT (lactam 19-23) [[PLA6, D9, E16, E24K28(lactam)]G(6~29) (Table 2 peptide 4)]
GLP-1 EC50 (GLP-1 receptor [4]): 289 nM | Glucagon IC50 (glucagon receptor [5]): 22 nM

B1: [E9, E16K20(lactam), D28]G(4~29) (Table 2 peptide 5) (peptide)
peptide: GTFTSEYSKYLDERRAKDFVQWLMDT-NH2
modifications: lactam 13-17; N-terminus assumed
SMILES: CSCC[C@H](NC(=O)[C@H](CC(C)C)NC(=O)[C@H](Cc1c[nH]c2ccccc12)NC(=O)[C@H](CCC(N)=O)NC(=O)[C@@H](NC(=O)[C@H](Cc1ccccc1)NC(=O)[C@H](CC(=O)O)NC(=O)[C@@H]1CCCCNC(=O)CC[C@H](NC(=O)[C@H](CC(=O)O)NC(=O)[C@H](CC(C)C)NC(=O)[C@H](Cc2ccc(O)cc2)NC(=O)[C@H](CCCCN)NC(=O)[C@H](CO)NC(=O)[C@H](Cc2ccc(O)cc2)NC(=O)[C@H](CCC(=O)O)NC(=O)[C@H](CO)NC(=O)[C@@H](NC(=O)[C@H](Cc2ccccc2)NC(=O)[C@@H](NC(=O)CN)[C@@H](C)O)[C@@H](C)O)C(=O)N[C@@H](CCCNC(=N)N)C(=O)N[C@@H](CCCNC(=N)N)C(=O)N[C@@H](C)C(=O)N1)C(C)C)C(=O)N[C@@H](CC(=O)O)C(=O)N[C@H](C(N)=O)[C@@H](C)O
GLP-1 EC50 (GLP-1 receptor [4]): 151 nM | Glucagon IC50 (glucagon receptor [5]): 10 to 30 nM

AEGTFTSEYSKYLDERRAKDFVQWLMDT (lactam 15-19) [[A2E3, E16K20(Lactam),D28]G(2~29) (Table 2 peptide 7)]
Glucagon IC50 (glucagon receptor [5]): 63 nM

B2: [A2E3, E16K20(Lactam), D28]G(1~29) (Table 2 peptide 8) (peptide)
peptide: HAEGTFTSEYSKYLDERRAKDFVQWLMDT-NH2
modifications: lactam 16-20; N-terminus assumed
SMILES: CSCC[C@H](NC(=O)[C@H](CC(C)C)NC(=O)[C@H](Cc1c[nH]c2ccccc12)NC(=O)[C@H](CCC(N)=O)NC(=O)[C@@H](NC(=O)[C@H](Cc1ccccc1)NC(=O)[C@H](CC(=O)O)NC(=O)[C@@H]1CCCCNC(=O)CC[C@H](NC(=O)[C@H](CC(=O)O)NC(=O)[C@H](CC(C)C)NC(=O)[C@H](Cc2ccc(O)cc2)NC(=O)[C@H](CCCCN)NC(=O)[C@H](CO)NC(=O)[C@H](Cc2ccc(O)cc2)NC(=O)[C@H](CCC(=O)O)NC(=O)[C@H](CO)NC(=O)[C@@H](NC(=O)[C@H](Cc2ccccc2)NC(=O)[C@@H](NC(=O)CNC(=O)[C@H](CCC(=O)O)NC(=O)[C@H](C)NC(=O)[C@@H](N)Cc2c[nH]cn2)[C@@H](C)O)[C@@H](C)O)C(=O)N[C@@H](CCCNC(=N)N)C(=O)N[C@@H](CCCNC(=N)N)C(=O)N[C@@H](C)C(=O)N1)C(C)C)C(=O)N[C@@H](CC(=O)O)C(=O)N[C@H](C(N)=O)[C@@H](C)O
GLP-1 EC50 (GLP-1 receptor [4]): 0.2 nM | Glucagon IC50 (nM); PA = partial antagonist (glucagon receptor [5]): 130 nM

HSQGTFTSDYARYLDARRAREFIKWLVRGRG [ANK2 (Bayer peptide) (Table 2 peptide 9)]
GLP-1 EC50 (GLP-1 receptor [4]): 0.28 nM

B3: Peptide D (parent peptide, lacking acylation and lacking a dipeptide prodrug moiety) (peptide)
peptide: F[Aib]EGTFTSD[Phe(4-NH2)]SIYLDKQAA[Aib]EFVNWLLAGGPSSGAPPPS-NH2
modifications: N-terminus assumed
SMILES: CC[C@H](C)[C@H](NC(=O)[C@H](CO)NC(=O)[C@H](Cc1ccc(N)cc1)NC(=O)[C@H](CC(=O)O)NC(=O)[C@H](CO)NC(=O)[C@@H](NC(=O)[C@H](Cc1ccccc1)NC(=O)[C@@H](NC(=O)CNC(=O)[C@H](CCC(=O)O)NC(=O)C(C)(C)NC(=O)[C@@H](N)Cc1ccccc1)[C@@H](C)O)[C@@H](C)O)C(=O)N[C@@H](Cc1ccc(O)cc1)C(=O)N[C@@H](CC(C)C)C(=O)N[C@@H](CC(=O)O)C(=O)N[C@@H](CCCCN)C(=O)N[C@@H](CCC(N)=O)C(=O)N[C@@H](C)C(=O)N[C@@H](C)C(=O)NC(C)(C)C(=O)N[C@@H](CCC(=O)O)C(=O)N[C@@H](Cc1ccccc1)C(=O)N[C@H](C(=O)N[C@@H](CC(N)=O)C(=O)N[C@@H](Cc1c[nH]c2ccccc12)C(=O)N[C@@H](CC(C)C)C(=O)N[C@@H](CC(C)C)C(=O)N[C@@H](C)C(=O)NCC(=O)NCC(=O)N1CCC[C@H]1C(=O)N[C@@H](CO)C(=O)N[C@@H](CO)C(=O)NCC(=O)N[C@@H](C)C(=O)N1CCC[C@H]1C(=O)N1CCC[C@H]1C(=O)N1CCC[C@H]1C(=O)N[C@@H](CO)C(N)=O)C(C)C
Relative activity to GLP-1 standard, luciferase cAMP reporter assay, sample after 0 d in 20% human plasma at 37 C (GLP-1 receptor [6]): 85.2% | Relative activity to GLP-1 standard, luciferase cAMP reporter assay, sample after 1 d in 20% human plasma at 37 C (GLP-1 receptor [6]): 84.1% | Relative activity to GLP-1 standard, luciferase cAMP reporter assay, sample after 5 d in 20% human plasma at 37 C (GLP-1 receptor [6]): 72.8%

F[Aib]EGTFTSD[Phe(4-NH2)]([Sar-dK-C22 acyl])SIYLDKQAA[Aib]EFVNWLLAGGPSSGAPPPS-NH2 [Peptide D with C22 acylated (d)Lysine-sarcosine dipeptide prodrug moiety at position 10]
Relative activity to GLP-1 standard, luciferase cAMP reporter assay, sample after 0 d in 20% human plasma at 37 C (GLP-1 receptor [6]): 30.9% | Relative activity to GLP-1 standard, luciferase cAMP reporter assay, sample after 1 d in 20% human plasma at 37 C (GLP-1 receptor [6]): 48.2% | Relative activity to GLP-1 standard, luciferase cAMP reporter assay, sample after 5 d in 20% human plasma at 37 C (GLP-1 receptor [6]): 63.2% | Restored (percent, 0 d; not defined in the filing, matches the ratio to the parent peptide at the same time) (GLP-1 receptor [6]): 36% | Restored (percent, 1 d; not defined in the filing, matches the ratio to the parent peptide at the same time) (GLP-1 receptor [6]): 57% | Restored (percent, 5 d; not defined in the filing, matches the ratio to the parent peptide at the same time) (GLP-1 receptor [6]): 87%

F[Aib]EGTFTSD[Phe(4-NH2)]([Lys-C22 acyl])SIYLDKQAA[Aib]EFVNWLLAGGPSSGAPPPS-NH2 (also: acylated amino group of the Lys not given here)
Relative activity to GLP-1 standard, luciferase cAMP reporter assay, sample after 0 d in 20% human plasma at 37 C (GLP-1 receptor [6]): 1.8% | Relative activity to GLP-1 standard, luciferase cAMP reporter assay, sample after 1 d in 20% human plasma at 37 C (GLP-1 receptor [6]): 2.1% | Relative activity to GLP-1 standard, luciferase cAMP reporter assay, sample after 5 d in 20% human plasma at 37 C (GLP-1 receptor [6]): 0.4%

F[Aib]EGTFTSD[Phe(4-NH2)]([Sar-dK-C20 acyl])SIYLDKQAA[Aib]EFVNWLLAGGPSSGAPPPS-NH2 [Peptide D with C20 acylated (d)Lysine-sarcosine dipeptide prodrug moiety at position 10]
Relative activity to GLP-1 standard, luciferase cAMP reporter assay, sample after 0 d in 20% human plasma at 37 C (GLP-1 receptor [6]): 30.9% | Relative activity to GLP-1 standard, luciferase cAMP reporter assay, sample after 1 d in 20% human plasma at 37 C (GLP-1 receptor [6]): 37.8% | Relative activity to GLP-1 standard, luciferase cAMP reporter assay, sample after 5 d in 20% human plasma at 37 C (GLP-1 receptor [6]): 96.9% | Restored (percent, 0 d; not defined in the filing, matches the ratio to the parent peptide at the same time) (GLP-1 receptor [6]): 36% | Restored (percent, 1 d; not defined in the filing, matches the ratio to the parent peptide at the same time) (GLP-1 receptor [6]): 45% | Restored (percent, 5 d; not defined in the filing, matches the ratio to the parent peptide at the same time) (GLP-1 receptor [6]): 133%

F[Aib]EGTFTSD[Phe(4-NH2)]([Lys-C20 acyl])SIYLDKQAA[Aib]EFVNWLLAGGPSSGAPPPS-NH2 (also: acylated amino group of the Lys not given here)
Relative activity to GLP-1 standard, luciferase cAMP reporter assay, sample after 0 d in 20% human plasma at 37 C (GLP-1 receptor [6]): 3.4% | Relative activity to GLP-1 standard, luciferase cAMP reporter assay, sample after 1 d in 20% human plasma at 37 C (GLP-1 receptor [6]): 0.7% | Relative activity to GLP-1 standard, luciferase cAMP reporter assay, sample after 5 d in 20% human plasma at 37 C (GLP-1 receptor [6]): 0.2%

Source: US20160058881A1, “PRODRUGS WITH PROLONGED ACTION” (INDIANA UNIVERSITY RESEARCH AND TECHNOLOGY CORPORATION, priority 2013, published 2016)
